Measurements published in PMC8629256, “Structural and functional studies of D109A human αB-crystallin contributing to the development of cataract and cardiomyopathy diseases” (PLoS ONE, 2021).

Target: the molecule itself
Experiment: AUC; sedimentation velocity, 20 °C, 40,000 rpm, 40 mM sodium phosphate, 100 mM NaCl, 1 mM EDTA, 3 mM NaN3, pH 7.0; wild type 1.0 mg/mL, D109A 0.5 mg/mL; c(s) and c(M) by SEDFIT; run after dialysis and again after 24 h at 20 °C; size of the oligomer

Protein	stoichiometry N
wild-type human αB-crystallin (natural protein, human αB-crystallin (HSPB5), 175 amino acids, coded by CRYAB; cDNA cloned in pET-28b(+); Polydisperse oligomer; 32 subunits is the number worked out for the majority species in AUC (about 650 kDa); also called heat shock protein β5; HSPB5; source: E. coli BL21 (DE3), purified (DEAE-cellulose anion exchange in urea buffer, dialysed against water); copies: 32) MDIAIHHPWIRRPFFPFHSPSRLFDQFFGEHLLESDLFPTSTSLSPFYLRPPSFLRAPSWFDTGLSEMRLEKDRFSVNLDVKHFSPEELKVKVLGDVIEVHGKHEERQDEHGFISREFHRKYRIPADVDPLTITSSLSSDGVLTVNGPRKQVSGPERTIPITREEKPAVTAAPKK	32 subunits
D109A mutant human αB-crystallin (natural protein, human αB-crystallin (HSPB5) with the patient mutation D109A (cDNA 326 A>C), made by site-directed mutagenesis of the wild-type cDNA in pET-28b(+); Polydisperse oligomer; 53 subunits is the number worked out for the majority species in AUC (about 1,060 kDa); larger ensembles of 1500-3000 kDa are also seen; The mutation is reported in patients with myofibrillar myopathy; No tag is named; see the …) MDIAIHHPWIRRPFFPFHSPSRLFDQFFGEHLLESDLFPTSTSLSPFYLRPPSFLRAPSWFDTGLSEMRLEKDRFSVNLDVKHFSPEELKVKVLGDVIEVHGKHEERQAEHGFISREFHRKYRIPADVDPLTITSSLSSDGVLTVNGPRKQVSGPERTIPITREEKPAVTAAPKK	53 subunits
